Drawing on a protein production outcome set (Wang et al. 2014), this text covers protein production for 18 sequences.
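Further: failed if final PepcDB status was selected cloned or expressed and not failed if soluble or beyond.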

A short description of this data set: label from the status in PepcDB records.
Regarding “MIAHPVVGIVGIAGAYGRWLAQFLRTRMGLEVIGVDPALPDGLDDATLVARADVLIFSAPIRHTAALIERYAALAGARAAEQLWLDVTSIKQAPVAAMLASQAEVVGLHPMTAPPKSPTLKGRVMVVCRARVQRWSGWVDALCSALQAECVYATPEHHDRVMALVQAMVHATHLAQAGTLRDYAPLLGELRTLMPYRSASFELDTAVIARILSLNPSIYEDIQFGNPYVAEMLDRLLAQLQELRGLVVQGDDAARLRFRQAFLDANAQALQGDSLAAGNYTYERVGYLLADLTEPLTLSVYLPEDQPGSLRVLLHVFEQHGVNLSSIHSSRTPGGELHFRMGFEPESDRAALGRAAAQIDADRIGRVLERVDRER”, the protein production entry is recorded as “failed”.
“MICLTSKMMAFLPYFLELKGKRVNIQALINDRVSQAIEAAGAPAGTPALVRQSAKAQFGDYQANGIMGAAKQLGTNPREFAQKVLDVLNLEGIASKTEIAGPGFINIFLSEEFLAAQAEAALADAR”: the protein production result is “failed”.
With “MICTEALQRISFSSDLGQSDKAPPPVIEPSGLIRRDETLLDSSNSDFEFHISNSFDPGDSSPADEIFADGMILPFHVTAASTVPKRLYKYELPPITSSLSPSPLSPQPLPTKHSEKETNGRASGANSDSEAEKSSKSFWSFKRSSSLNCDIKKSLICSFPRLTRSNSTGSVTNSKRAMLRDVNNHRPSSRSSCCNAYQFRPQKHTGKKGEGGGSFSVIPVLNGPSTFGLGSILRHSNSKDKTKTKKKKNKK”, the protein production result is “failed”.
Consider “MIDLRSDTVTKPTEEMRKAMAQAEVGDDVYGEDPTINELERLAAETFGKEAALFVPSGTMGNQVSIMAHTQRGDEVILEADSHIFWYEVGAMAVLSGVMPHPVPGKNGAMDPDDVRKAIRPRNIHFPRTSLIAIENTHNRSGGRVVPLENIKEICTIAKEHGINVHIDGARIFNASIASGVPVKEYAGYADSVMFCLSKGLCAPVGSVVVGDRDFIERARKARKMLGGGMRQAGVLAAAGIIALTKMVDRLKEDHENARFLALKLKEIGYSVNPEDVKTNMVILRTDNLKVNAHGFIEALRNSGVLANAVSDTEIRLVTHKDVSRNDIEEALNIFEKLFRKFS”, for which the protein production entry is “not failed”.
Next, “MIDNIIRKKWMLKHVRVIVPLLVLLFSLLLTVFVVYTAYSLQLRHNRTLLENLADRQTMALQQFVDGDIHFIGSAANFFRSSTSDDWVRFHTFAEETLKGSQSLIALQWLVKVEPPQAETFTARMQQRFPEFTLYTVPKTGEIKYGFGTDDQAKYVLSDIYPLNYDNRKLLGFYSERERFKRILADIVVNRRPNVSDKVRLLQDGIDKSIVKDGMLVYHPVFSSEDDRSLLGVMVGVVRLSTYFEKLVQISVMEQDLDMRVIDTGFDSEDSPVLYQSPMWRADDEPKIERKLVLPNRDWVLEFELHQPINHSEEWVLLGLGLGGVIISLLLSYIMRMQLEEKQRLTDMIEERTAELRYLVEHDSLTNIYNRRFFSQHLCKMLDEKQSFTLISFDIDRFKQINDSYGHLAGDYALTHVVDVVKKELVESDIFARFGGDEFAILSSVTDETALYTYLERIRKVVEAEPVMLNAETPLTLTISIGASINCEYSEPEILQSVDDQLYLSKSKGRNRVSIAHNAAR”: “failed”; “MIDTMQYGKNDSLRDEIKAYWSGRAATFDLSPGHEIFSEDERAAWHALILKHLGRGEGRKALDLASGTGVISHLMDDLGFQVTGMDWSETMLGLAREKAKSRGRNIRFFVGDAENTMEPDESADVIITRHLVWTLVDPQASFAEWFRVLKPGGKLLIVDGDFVNTGWRERLVKKLAVSLESIGLVKADQPHKPADPENTFNSILSRVYFSKGARAGDVATMLGATGFEPVSVDQELRAIHRAQAKNFSLLKGILRGLQHRYAVCAVKPDTSVKG”: “failed”.
The same measure for “MIDWPLAELLPHAGDMILIDQVLAFDEEQIRTRLEVRPGGLFNRPDGSLPAWVGVELMAQSVAAYAGCRARQQGLPVELGFLLGTRKFECNVEHFPLGSTLEIHALRSLEDDNGMGVFECHLSGPGITASARLNVFRPLEHHHHHH”: “failed”.
Take “MIEAIAIAIAVLGAVLLLILFARIRAVDAELKLKKHRAKDAGLADLLNYAAVVDDGVIVGKNGSFMAAWLYKGDDNASSTEEQREMVSFRINQALAGLGNGWMVHVDAVRRPAPNYSERGVSSFPDSVSFAIDEERRRLFEGLGAMFEGYFVLTVTWFPPVLAQRKFVELMFDDDAVAPDHTARTTGLIAQFKREITSLESRLSSAVKMTRLRGQKVVSEEGREVTHDDFLSWLQFCVTGLHHPVMLPSNPMYLDAVIGGQELWGGVVPKIGRKFIQVVAIEGFPLESTPGVLSALAELPSEYRWSSRFIFMDQHESLKHLDKFRKKWKQKIRGFFDQVFNTNTGSINQDAAAMVGDAEAAIAEVNSGLVAAGYYTSVVVLMDEDRERLAASALLVEKAVNRLAFAARIETINTLDAYLGSLPGHGVENVRRPLINTMNLADLLPTSSIWTGSATAPCPMYPPLSPALMHCVTVGATPFRLNLHVRDLGHTFMFGPTGAGKSTHLGIIAAQLRRYAGMSIYAFDKGMSMYPLAAGIRAATKGKSGLHFTVAADDDRLAFCPLQFLETKGDRAWAMEWIDTILALNGVNTTPAQRNEIGNAIMSMHASGARTLSEFSVTIQDEAIREAIKQYTVDGSMGHLLDAEEDGLSLSDFTVFEIEELMNLGEKFALPVLLYLFRRIERALKGQPSVIILDEAWLMLGHPAFRAKIREWLKVLRKANCLVLMATQSLSDAANSGILDVIVESTATKIFLPNVYARDEDTSALYRRMGLNARQIEILATAIPKRQYYYVSENGRRLYDLALGPMALAFVGASDKESVATIKSLEAKFGHEWVHEWLAGRGLNLNDYLEAA”: the protein production entry was “failed”.
For the sequence “MIEENLVEFIEILMLATAVAVTVKFIRLPYTIALVLAGLFVGLAGLLPEVPLSREIVFFIFLPPLLFEAAMNMDLKELRENFGPIALIAFLGVVVTTTVVGFSLNWILGIPLALALIFGAMVSATDPVSVLATFKSISAPKKLSILIEGESVLNDGAAIVVFAIALEMMLKGVFDPLNAALDFAVVCVGGAAVGLAVGYLAYRILAKIDDALVEIAVTIVAAYLGFVLAERFHFSGVIAVVAAGLILGNYGRDFSMSPTTRVIMLDFWSVIVFLVNSIIFILIGVNTHITIFSAWKEILVAIAAVILARAFVVYPVMTYYRFPNLWKHVVFWGGLRGVIPVALALSFGNQLLSAMAFGVVLFSLLLQGISLEIFVKRKFVSESERELEEIIARYIAARSAKFELMKAVEQGRIVEPVAREMLPNLDAEIEELRSKLEEKIRGGMGSKLRKAAVKYVIDAKKSAVVDAMAGGLVSQEVALEIMRELDSKTAELME”, the protein production entry is “failed”.
With “MIEENYKEERYTERVNQGGVWGSFKRKFLSWADDDAGYDEEKDYENLLNNEKLQKKLREWRRTKNQQNNNKTFNTNDTNSFETIQSVIAEQLNVDAVQVTPEAEFVKDLGADSDVVELIMALEEKFGIEIPDEQAEKIVNVGDVMRYIEKQLI”, the protein production entry is recorded as “failed”.
Next, “MIEFTALDDLSLLRESVSLECKLAQGRDGKGALPDDFWPTYSAMANTDGGIVILGVRERKGQFEVAGIENPDKLRTELFNHLNNRQKVSVNLLRDEDVRAWPVEGKTLLVVEIPRARRQQRPVYLRGNPLGGHTYRRLHEGDRPLPDEDVKRMLAEQVEDSRDERILPGYGLDDLHLESLRAYRQLFANRDPSHPWNALADQAFLRQIGGWRQHRETGEAGLTLAGLLMFGQWSSITEAVPLCFLDYQERPADYATTVQWLDRIVPDGTWSGNVFDFYRRVVGKLTADIKVPFVLKGDIRQDDTPTHKALREALVNTLVHADYTGRISVLVVKEPAGFVLRNPGGLRVPAQQALQGGMSDCRNRTMQQMFLMIGLGERAGSGMSRIVHGWRDLGHELHLRESYEPHEHSVLEMFWAKGRGATLASESSEESSEESSEETGKKILHLLREEPSLTASALARRLQLTPRAIEKQLEHHHHHH”: “not failed”; “MIEGHGDDSYKYRHPIRSNFSSNVYNKVNLDGLRAHLCGRISAISAYPEPEPYTLEARLADRHALPAASVCVTNGATEAIYLIAQTFRGTNTAILMPTFSEYADACRMHGHKVTSLYTLDAVPEDVRMVWLCNPNNPTGEVRDKKYLTELIAKHPRVCFVIDQSYEYFTLKELFTAQEAAGFPNVILLHSMTKRYAIPGLRLGYVTAHPGLIGRLRTNRMPWSVNQLAIEAGLYLLSEGIPAGLSMKDYLAECARLKSSLEAIGGLEVWPTDTHFMLVCLRFGKAAALKEYLAREEGILIRDASNFEGLDERFFRIATQTPEENDELVGAIAKWMAE”: “failed”; “MIELLFPGWLAGILLAIAAGPLGSFVVWRRMSYFGDTLAHASLLGVAFGLLLNINLFSAVIAVTLILALGLVWLERRPYLAVDTLLGIMAHSALSLGLVVVSLMNNVRVDLMAYLFGDLLSVTTEDLWVIGAGVIIVVAVMRWQWRALLSMTISPELAHVDGVKIQRTKLLLMLTTALTIGIAMKFVGALIITSLLIIPAASARRFARTPEQMAIIAVMIGMIAVTGGLAFSAGYNTPAGPSVVLCASLLFIVSLLKPQPA”: “failed”.
“MIELLISILTYALISLQSFYRKMDRPAASTIGAALMLAFGVMSLKEAVRAIDYNTIMLLFGMMVLTAYLGIAGFFDWLASKIMGFSGNGKRLLFTIVFSSGFLSALFVNDTICVFMTPVVVRVALSAGISPIPLLIALATSANVGSAVTIIGNPQNMLIGLKSGIGFVQFTAKMLPVGVAGIFIVYSVIYVLYRGELGKLRNGKIEVNLNRRLAAKGLLTFALVLILFVTEFYPVSLSAFIGAAIMFAIGGVKPREALEKVDWGLLLLFCNLFIVMHGFEKSYGEKILSMLSFGESFADYLYFSLLTVAGSNLVSNVPFVMMVLPAAKGAAADFWLILAMASTFAGNLTLIGSVANLIVAESAERHGVHLSFFEYLKAGVPVTFATVLVGALLIYIT”: the protein production entry was “failed”.
The same measure for “MIERGRLGAASRRRATSAHGPIQTTVFMSSGIVFHAVAALAYAVLAGSLWRRLQGRGSVDQASKLTRTGLLGALALHGVALQQAMLGTQHLYIGWALALSAAVWLGLVVFWLESLLIRIDGLQLLLLPAAAIVTAIAALFPQAQLVPHANNPWLRAHLLIALAAYGLITIAALHAMLIALLDRHLHRPLDAPAERSIVGRVLDAQPPLLVQERLLFRVIWIGFVVLTLAVGSGSVASITLTGKFLPFDHKTIFTLLSWATFGVLLLGRHIRGWRGRVALRWTLTGFAFLILAYTGSRFVLEVILHRG”: “failed”.
Consider “MIERLRGALASASFPVMALLLLSAIVVYPLWTMLFLGAVFAYIVRPVALRINRRIPYLSVSIILAMIVVIMPLVGILVFTVDSIINSAPSLLSLAGSIHVPGAGNLQPSAENTLANLRTVLRDILSGSLNYVVAILQSVPMISLQLFVFLSSTFYFARDGKRLVGYIRTLIPEETRPFMERMASETERVLLSIFYGHFLTALAIGLMAAVGFHLLGYPYAILLGIMTGLFQLIPVIGPWAAYTPLSIYDFVTGNILRGVLVLIFGLFLSTIDIYLRPKLSGKYADIHPMIFLVGFLGGPVVWGVAGFIVGPLVLGLAYAALEAYRMESGGEEVQ”, for which the protein production entry is listed as “failed”.
The same measure for “MIEVIILAIALSMDAFAVSIGLGATKQQSKVAPLGIIVALYFGLFQGIMPIIGYLGGKGVLSWAESYTPWIAFLLLFLIGVKMIFDSFSEGIEEDISKITHRVLLILAIATSIDAMAAGFSLTLLPVNPLIACLIIASVTFIFSWLGVLVGTKGGTWLENKAEFVGGITLIVMAIKIIITS”: “failed”; for “MIEYIIGVIGLLLASVQDFRSREIEDYIWIVLAVFGILFAIYSAITLSNYSILINSISGFVICFILGYMMFLSGIGGGDGKILIGLGALVPKFQMPIYTSLGTLLNLNYIPNFPIMVFINGIFFMVFLPFVILFRNILNGARPKTGKEVILMFFGEKMKVKVAKEQKRLIMGQNDKINFFPASDDEDFSKYGDEEEIWVTPQIPLIIPITLSYLVTPIIGDRILDLLIPF”: “failed”.
